Assay results: patent CN112442122A (SHANGHAI NOVAMAB BIOPHARMACEUTICALS CO LTD, dated 2021)

Columns and labels:
[1] = target: T1, 人PD-1 (on CHOZn/PD-1 stably transfected cells) (human, UniProt Q15116 25-288); experiment: flow cytometry; competition with 50ug/ml hPD-L1-Biotin on CHOZn/PD-1 cells
T1 construct: whole, on cells; also called hPD-1; GS-J2/PD-1

[2] = target: T1, 人PD-1 (on CHOZn/PD-1 stably transfected …); experiment: flow cytometry; binding to CHOZn/PD-1 cells, anti Human IgG-FITC detection

T1 sequence (Q15116 25-288): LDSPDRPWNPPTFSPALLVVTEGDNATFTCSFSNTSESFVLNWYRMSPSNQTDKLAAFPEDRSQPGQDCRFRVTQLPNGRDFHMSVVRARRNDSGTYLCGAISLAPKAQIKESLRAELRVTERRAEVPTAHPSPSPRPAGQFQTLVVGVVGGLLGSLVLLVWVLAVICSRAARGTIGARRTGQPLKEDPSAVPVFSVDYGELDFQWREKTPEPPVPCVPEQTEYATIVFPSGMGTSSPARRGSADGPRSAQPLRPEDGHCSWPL

IC50 [1]: 1.3 µg/mL | EC50 [2]: 1.06 µg/mL
B1: PD-1Nb-Fc融合蛋白 (Fc fusion)
chain: QVQLQESGGGSVQAGGSLRLSCAASGYTYSSYYMGWFRQAPGKEREGVAAIDRDGRTSYADSVKGRFTISRDNAKNTLYLQMNSLKPEDTAMYTCAAVLVLSGYYSDYGLVPPPFEYNYWGQGTQVTVSS
notes: also called PD-1纳米抗体; not shown: IgG4 Fc supplied by the pFUSE-IgG4 vector (Invivogen)
